These results are taken from the supplement of paper PMC9170038.

The test system of the series is MS2 coat protein. Description: apparent KD of MS2 coat protein; higher = weaker reporter binding. To be noted: Eterna round: R107. The method, boiled down:
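Designed RNA switches were made by on-chip transcription from Illumina sequencing clusters and then titrated with SNAP-549-labelled MS2 coat protein. Twofold steps ran from 0.7 or 1.5 nM to 3 µM, each lasting 0.8–1.5 h early and 10–20 min late, in 100 mM Tris-HCl pH 7.5, 80 mM KCl, 4 mM MgCl2, without or with constant ligand. Apparent KD is the per-design median of normalised cluster binding-curve fits.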

Where [1] appears, read: input ligand: theophylline 20 uM.
Setting [2] is: input ligand: tryptophan 2.4 mM.
[3] abbreviates: input ligand: theophylline 2 mM.

Regarding “AUUUACAUGGUCAUAUAUAUAUCGUCAGAUACCAGACGAGAUAUUGUCCCUUGGCAGCUGUUACAUGAGGAUCACCCAUGUAAUU [JR_Nu_ExcTheophyA_Sub021]”, the “apparent KD of MS2 coat protein” value was found to be 41 nM (input ligand: arginine 13.2 mM), 56.4 nM under setting [1] and 64.7 nM under setting [2].
For “CAACUGCUUGAGCUUACUUAUUGGACUUCCCGAGGACCGGUACGGCCGCCACUCGCAGGGACACAUGAGGAUCACCCAUGUAAAG [theeternabot_exclusion_MS2_Trp_A_42]”, the “apparent KD of MS2 coat protein” value (input ligand: arginine 13.2 mM) was determined as 17.3 nM, the “apparent KD of MS2 coat protein” value under setting [1] is 21.1 nM and the “apparent KD of MS2 coat protein” value under setting [3] was determined as 19.6 nM.
In the case of “CAAGAAUGACGUACAGAUAACAAUAACGAUACCAGUACAUCAUUAUACCCUUGGCAGCGUUUCACAUGAGGAUCACCCAUGUACA [theeternabot_exclusion_MS2_Theo_A_14]”, the “apparent KD of MS2 coat protein” value runs as follows: (input ligand: arginine 13.2 mM) 15.4 nM; under setting [1], 20.1 nM; under setting [2], 17.6 nM.
For the sequence “CAAUAUAUAUGAAGGAGCGUCGAAAAUGGGUAAACAUGAGGAUCACCCAUGUAAAGGGAACGACAGGUAGGUCGCAUAUGUAUUG [AstromonsSSArgB#9]”, the “apparent KD of MS2 coat protein” value reads like this: (input ligand: arginine 13.2 mM) 171 nM; (input ligand: none) 165 nM; under setting [1], 195 nM; under setting [3], 261 nM; under setting [2], 190 nM.
Turning to “CAAUCUACCACCGGCCUACUGUACACUCGCCGAGGACCGGUACGGCCGCCACUCGACGUUCGACAUGAGGAUCACCCAUGUGGGU [theeternabot_exclusion_MS2_Trp_A_14]”, the “apparent KD of MS2 coat protein” value stood at 80.1 nM (input ligand: arginine 13.2 mM), 200 nM under setting [1] and 289 nM under setting [3].
Consider “CACGAAAGAUCGGCCGCCACUAAUCUAUGUGUACUAGCACAUGAGGAUCACCCAUGUUCUUGCGUUAGGACCGGGAUUGAGCGUG [#03 Exclusion Tryptophan B]”, for which the “apparent KD of MS2 coat protein” value by setting is: (input ligand: arginine 13.2 mM) 23.4 nM; under setting [1], 27.6 nM; under setting [3], 24 nM.
Regarding “CAUAUAUAUAGAAGGAGCGUCGAAAAUGGGUAAACAUGAGGAUCACCCAUGUAAAGGGAACGACAGGUAGGUCGCUAUAUAUAUG [AstromonsSSArgB#3]”, the “apparent KD of MS2 coat protein” value runs as follows: (input ligand: arginine 13.2 mM) 99.1 nM; (input ligand: none) 161 nM; under setting [1], 187 nM; under setting [3], 208 nM; under setting [2], 175 nM.
“CAUCAUGGGCUUGGACAAAUUGUGCUUGAUACCAGAAAUCACCGGUUCCCUUGGCAGCAACCCACAUGAGGAUCACCCAUGUGGA [theeternabot_exclusion_MS2_Theo_A_4]”: the “apparent KD of MS2 coat protein” value amounted to 18.6 nM (input ligand: arginine 13.2 mM), 20.1 nM under setting [1] and 23 nM under setting [2].
The corresponding values for “CCAUAUGUAACUGAUACCAGUGUACUGACAUGAGGAUCACCCAUGUUGGGUUUUGUUGUACACCCUUGGCAGCAGAAUCAUAUGG [AstrosExyTheB#17]” are 48.3 nM, 73.6 nM and 53.9 nM.
In the case of “CCCAAGCCAGCUGAUACCAGUGACGUGGUCAGAAUGUGCGACAUGAGGAUCACCCAUGUACACCCUUGGCAGCAGUAGAACGGUU [theeternabot_exclusion_MS2_Theo_B_47]”, the “apparent KD of MS2 coat protein” value runs as follows: (input ligand: arginine 13.2 mM) 13.6 nM; under setting [1], 18.9 nM; under setting [2], 14.9 nM.
Regarding “CCGUAGCUAGGAAGGAGCGCAUACUUCACAUGAGGAUCACCCAUGUCGAGACGUGAGUCAGUGCAGGUAGGUCGCCUAGCUAUGG [Same State - Arginine B (Freestyle 28)]”, the “apparent KD of MS2 coat protein” value was found to be 23.5 nM (input ligand: arginine 13.2 mM); 15.5 nM (input ligand: none); 26.4 nM under setting [1]; 30.5 nM under setting [3]; 15.7 nM under setting [2].
With “CCUAUGCAGUCGGCCGCCACUGAACAUGAGGAUCACCCAUGUAAUUAAAAUUAAGGUCCUAAAAUCAGGACCGGGACUGUAUAGG [Ex Tryptophan B 6]”, the “apparent KD of MS2 coat protein” value worked out at 37.6 nM (input ligand: arginine 13.2 mM), 43.3 nM under setting [1] and 56.6 nM under setting [3].
As to “CCUAUGCAGUCGGCCGCCACUGAACAUGAGGAUCACCCAUGUUAUUAUAAAUAUGGUCCUAAAAUCAGGACCGGGACUGUAUAGG [Ex Tryptophan B 8]”, the “apparent KD of MS2 coat protein” value by setting is: (input ligand: arginine 13.2 mM) 42.7 nM; under setting [1], 67.9 nM; under setting [3], 90 nM.
The corresponding values for “CCUCAAUAGACGGCCGCCACUGAAACAUGAGGAUACAUGAGGAUCACCCAUGUGGGUGUGUUACGCAGGACCGGGUCAAGACCCG [Tryp B SS t1]” are 304 nM, 435 nM and 1280 nM.
Take “CCUCACGAAAUCGAUGAAAGCAUGUGGCACCGAGGACCGGUACGGCCGCCACUCGCAUCCACACAUGAGGAUCACCCAUGUAAGA [theeternabot_exclusion_MS2_Trp_A_9]”: the “apparent KD of MS2 coat protein” value stood at 27.3 nM (input ligand: arginine 13.2 mM), 37.6 nM under setting [1] and 59.6 nM under setting [3].
As to “CCUCAUGAACAUGAGGAUCACCCAUGUACACGAGGACCGGUACGGCCGCCACUCGAAUAACCUUAAUAUAAAUAAUAAUAAAAGG [5' end split MS2]”, the “apparent KD of MS2 coat protein” value runs as follows: (input ligand: arginine 13.2 mM) 14.5 nM; (input ligand: none) 16.7 nM; under setting [1], 21.5 nM; under setting [3], 19.1 nM; under setting [2], 45.5 nM.
The corresponding values for “CCUUAAUAUAGAAGGAGCGCGCUAACAUGAGGAUCACCCAUGUAAAGGGUUUUUGGCUUAGCGCAGGUAGGUCGCUAUAAGAACC [Arg B Ex t1]” are 74 nM, 128 nM, 162 nM, 131 nM and 134 nM.
